Data as given in the DeepSol protein solubility set.

Test: soluble on expression in E. coli; label from the status in PepcDB or PDB records

| Sequence | soluble on expression in E. coli |
| --- | --- |
| MTNDDKCTSFFDKNYQTPEFIENKKRQAQQGRRRFLKSAAGMGALASLPALSVSAKAQTSLNELLKTLVKTDPWLTLDATLNQLLPSSPTGPSASEIRATAYLYQVMTVQPTEQDEKDFILKGVGWLNGYANSEKSANFAQLSFADKEQLLRGISNSTAGQNWLNTLLGYIFQAMLSPASYGGNPDGIGWAWLEHQAGFPMPEKGQRYFELPTRARIDLISRVNYDAKRLASSRNKSHQGTKKS | not soluble |
| MEAAHFFEGTEKLLEVWFSRQQPDANQGSGDLRTIPRSEWDILLKDVQCSIISVTKTDKQEAYVLSEASMFVSKRRFILKTCGTTLLLKALVPLLKLARDYSGFDSIQSFFYSRKNFMKPSHQGYPHRNFQEEIEFLNAIFPNGAAYCMGRMNSDCWYLYTLDFPESRVISQPDQTLEILMSELDPAVMDQFYMKDGVTAKDVTRESGIRDLIPGSVIDATMFNPCGYSMNGMKSDGTYWTIHITPEPEFSYVSFETNLSQTSYDDLIRKVVEVFKPGKFVTTLFVNQSSKCRTVLASPQKIEGFKRLDCQSAMFNDYNFVFTSFAKKQQQQQSHICRSQMVTSQQTSSVVRQT | soluble |
| MTKKDKKAKGPKMSTITTKSGESLKVFEDLHDFETYLKGETEDQEFDHVHCQLKYYPPFVLHDAHDDPEKIKETANSHSKKFVRHLHQHVEKHLLKDIKTAINKPELKFHDKKKQESFDRIVWNYGEETELNAKKFKVSVEVVCKHDGAMVDVDYKTEPLQPLI | soluble |
| MSLNAPSNAPWLSHYDEGIPSSLAPYPRVTLPDILREAARKHPEDPALLFLGNTISYGELERESNAFAAALHASEVRKGNRVAVLLPNSPQMIIAEFGIWKAGGIAVMLNPLWTEHELERAIDECEAEIAVVLAPFYEKINHLRSRTSLKTVVITDLHDYFPAAMRNASPANGAVATMLQSSDLRMPAMIESYSGSQTPAVEVSPKDPALFIFSGGTTGKPKCAIGRHEASVMNGMQVDAWFRPVLGSDRVPVMLNLPLHHVYPQVAIIGYGFVTRSPLVLIPDPRDFELLIKTIKQYKVGLLPGIPTLFNALAAHPLLKEAPGSLDSLKLIISAAAPLHNKTRRRFKELTGATIIDAYGLTEAMVSPVCQPLNGIRKNGSVGLPVPDVEMRIVDADTGIEVLPSMEIGEIVIRSPQLMTGYWKNPEETAEVLRDGWLYTGDLGYIDDDGYLYIVDRKKDVIKPSGFQVWPSEVEEVIAMHPAVLETGVAGVPDDYQSEAVKAWVVLHKGHSLDAEQLKNWCRQTLAPYKVPKHIEFCEQLPKSALGKVLRQALVEQHLTSEGHHHHHH | soluble |
| MSLTKAYTIVIKLGSSSLVDESTKEPKLSIMTLIVETVTNLKRMGHKVIIVSSGGIAVGLDALNIPHKPKQLSEVQAIAAVGQGRLIARWNMLFSQYGEQTAQILLTRNDILRWNQYNNARNTINELLAMGVIPIVNENDTLSISEIEFGDNDTLSAITAALVGADFLFLLTDVDCLYTDNPRTNPDARPIVLVPELSEGLPGVNTSSGSGSEVGTGGMRTKLIAADLASNAGIETIVMKSDRPEYVPKIVDYIQHHFRPPRHIGNGTQQQFLDLQDTELEQLRRYDVPMHTKFLANDNKHKLKNREFWILHGLITKGAIIIDENSYDKLLSKDMASLTPNAVIEVRDNFHELECVDLKIGQRLPNGELDISKPIQSVGCVRSNYTSLELAKIKGLPSEKIHDVLGYSVSEYVAHRENIAFPPQFEGHHHHHH | not soluble |
| MTYRVKIHKQVVKALQSLPKAHYRRFLEFRDILEYEPVPREKFDVIKLEGTGDLDLYRARLGDYRVIYSVNWKDKVIKILKLKPRGRAYK | soluble |
| MKCKDDMSAVLTAEQALKLVGEMFVYHMPFNRALGMELERYEKEFAQLAFKNQPMMVGNWAQSILHGGVIASALDVAAGLVCVGSTLTRHETISEDELRQRLSRMGTIDLRVDYLRPGRGERFTATSSLLRAGNKVAVARVELHNEEQLYIASATATYMVGLEHHHHHH | soluble |
| MLDFKPIELKDRELFHEYLKDYDFLTYEYSFLTLYIWRKMYNTEFAIVDDTIVIKKRTANNGTYFMQPIGADKSKIADITLKLNTLRKNNPDFKYLYGDVETPFLEQLHENFGNLVTSHEDKNNFDYIFNSKDLIKLSGKKYHRKKNQYNQFIKKYDYRIEEIQSPEVIKNCIDLSLKWYDYKSLQSEQLKNEQKAIFDIFSNIKIFNNIKGIAVYVNNEIAGFAIGEKLNSKMATVHFEKGNYNFSGIYPFLNKSLVEIFFRDVEFINLQEDLGLEGLRRAKSAYQPIKLEKKYLVNI | not soluble |
| GIDPFTMLSSGDLTSASWELVVRVDHANGEQQTEITLRVSGDLHIGGVMLKLVEQMNIAQDWSDYALWWEQKRCWLLKTHWTLDKCGVQADANLLFTPQHKM | soluble |
| MKRLLVIGIMYTMFFLIGNIHLHADERTNVKEITSLEEPTWIFQAGISKGKYHDRQDLGFILQRNTPLKVRQTNPNFKDKLTVRLLSNDSKNEKSIQVGNEWITIQGDTPLVPFIDTPYGEEPALLEYQVGNESATKPLPIYKQQGSVSQFFSTWDQFDGEYALIQGESFQLFIPKKDKELVRSLKDFQSLDELIAYYEDIFAMYDSIIGLDGSTVENKKSQNRYFLKADISGAGGAYYGANWTANSTDSTKMWLDKLSWGTLHEIAHGYQAGFDNQGIFTGEVSNNLFGVQYQYSKYGKKADQVGWLFNFGKKEQVERNLYNALMKENKNYDDLDLRQKLILLTMAKQKAGDEAFAKMYQGYRKLASNAAFKKGDHSLPDLMNQYYSENVQVDFTPVFERWGFKLNHKQIEMNRAKGYPAVTSLAYIVPESQLAKARALVDPDIPINSNFEIVRNQQIASLGLKGNLHIHLNTNEIDTLKGGKIKLKEGNTVIQEKTIETADINLQDVPNGIYTVEISGGKTDSMYHFSTYYAYVKEKDNSLTIDVNEMKVSNLVNETIQFLGLGDDQFAELNTDLEQERAVFTVTTKTPHSYYAGEKYASIELFNEKGEKIYTKEMEGTNVTVVKDIIPLKEGYRIKIYHDEVKKRLTSKATIINPMNKTNEIIMTKWGLKNTYLKNNPEENLMKRIDEEMEVIISNPLLKEIPMQKLEMKKNVWMAINMLSEPQKITYINKYKDSLYNE | not soluble |
| MNSQQEWEHAYSLAERMYNKQAPTKREELNPTERVICSRFETIFDYDPFKDEYTFRDQALLFSTPVQPKCRTVAEADLHELKENTAKLNIPMPSYINICPIYALLPFTVLVFNNSQHAHKSLSDDMERAAATFRNPHESEIVPGAMYIFKQKHGKAYRCIILSEDGDMNIPDAERKYLVAFIDNVQIVSVKQKTLFVSDQFSIKDYPCALHCARIVGISAIRKSYVSGMNQFILNFYDAKEKRKAGMFAFIYKLDKEEKKLVIDYPSLLGTPKTTSTEIRTAVGHQIVASKDPVSLTFEQLNKKEVPEFKYLNSTDDDSDVELDLIEHDTKSVNPVASSHPTSSSMDDCPYGRASIARAKDYQLRLPPHSQKGLSSSSLLGSSYPVSNSIKNDITKQSESNRADATNISFSSFESTKSDISPQNNQNVEETSTPTVPPNSTIQENEEDEIMSPASIIRAPSRLAGSLNKVSIERPNTPLPTSSKNSEHNMSEISTYEASSISSHHLVPQSPSVPKTNYTVPVVQRPLTAPEKFRDPFGGPGSSDILNTKMLCSEKNIVPSNKFGRQISPGKDDKNENYQYSRMETKPQTLFAPVLDENQRQSSSSNMMCQIPDISSVAQVGFL | not soluble |
| ASNFEEFVLVDNGGTGDVKVAPSNFANGVAEWISSNSRSQAYKVTCSVRQSSANNRKYTVKVEVPKVATQVQGGVELPVAAWRSYMNMELTIPVFATNDDCALIVKALQGTFKTGNPIATAIAANSGIY | soluble |
| MINKIFALPVIEQLTPVLSRRQLDDLDLIVVDHPQVKASFALQGAHLLSWKPVGEEEVLWLSNNTPFKTGVALRGGVPICWPWFGPAAQQGLPSHGFARNLPWALKAHNEDDNGVMLTFELQSSEATRKYWPHDFTLLARFKVGKTCEIELEAHGEFATTSALHSYFNVGDIANVKVSGLGDRFIDKVNDAKEGVLTDGIQTFPDRTDRVYLNPEACSVIHDATLNRTIDVVHHHHLNVVGWNPGPALSVSMGDMPDDGYKTFVCVETVYATAPQQATEEKPSRLAQTICVAKR | not soluble |
| MGSDKIHHHHHHMKPLADRIRPENFNEVFGQKHIIGEGKILDRILKSSLVPNMIFYGPPGTGKTTVANIIAKKTNKAFYKLNATTASVKDVREITDSTNTLMGRNGVLLYLDEIQNFNKKQQQSLLEFMENGSITLIASTTENPYFYVYNAILSRSTIFEFKPLESDELMKAVNRAVELIKDELKTTEIIITEDAKKYAVGVSSGDVRKTLNSIEIAVYSTKPNEEGNIFIDLETMKECTQKNVLNFDKDGDNHYDILSAFQKSIRGSDADAAVLYLAMLIKGGDLKSICRRLLVIAAEDIGLAYPQAISIVKACTDSALELGFPEARIPLAEAVILLATSPKSNSAITAVDSALRDLDTINVGSIPDYLRDGHYEGAKKLGRMQDYKYPHSYENNYVKQKYLPSNLENRRYYEYGKNKIEEKCREYWERIKY | not soluble |
| MAHHHHHHMAANEGNQSCMDALSSITFAQLAGPLQPVYGPSRVPRHQQFVDLVTDSSGMSPFIPFGTQGSANSSTAFPVDNAYLSKRAPPESEGQNRAAYYNNSSASMQTPEKVDKPQMLRQVSVGAPTPSSGMGMTASPATVCRYITHATPGSALLDETCTRTYLRSAPMNFVASTGITTDNAIGAVSNAVLSAAAAALPSVKVSIDDKPTSLAIELEQAYEEHVHESKRRVGDKVKRKEKKVLVTVGFPGVDNVPQMISDGTEEQLLNKEEVEQGKRRRERRQSRGKNKQKGDNNNNNCIFHDGDKFVSNFSSIHADNESHGECGDRKFLVTLRCHGHRDVTAICCLRLSKGKYVIFEADRGVDLGEVINVKELISEPSGNSAPAQVLRCALDEEVEDWKGPLVERENEAVEECRHVCEQLGLTIRVVGAAYQFDRQKLTFMYESDDRVDFRALLQVMFSKFRCRIWMERRGRGHQDNDAHTG | not soluble |
| MTVETQLNPTQPVNQQIYRILRRDIVHCLIPPGTPLSEKEVSTRFNVSRQPVREAFIKLAENGLIQIRPQRGSYVNKISLSQVQNGCFVRQAIECAVVRRAAAMITDNQCYQLAQNLHLQHIAIERKQIDDFFQLDDDFHQKLAQIADCQLAWDTIENIKATIDRVRYMSLDHVSPPEMLLRQHHDIFSALENRDGNAVESAMTQHLQEISESVQLIRQENSGWFSEE | not soluble |
| MNKLQSYFIASVLYVMTPHAFAQGTVTIYLPGEQQTLSVGPVENVAQLVTQPQLRDRLWWPGALLTDSAVKAKALKDYQHVMAQLASWEAEADDDVAATIKSVRQQLLNLNITGRLPVKLDPDFVRVDENSNPPLVGNYTLYTVQRPVTITLLGAVSGAGQLPWQAGRSVTDYLQDHPRLAGADKNNVIVITPEGETVVAPVALWNKRHVEPPPGSQLWLGFSAHVLPEKYADLNDQIVSVLTQRVPD | soluble |
| PPIILQGPANQTLAVDGTALLKCKATGDPLPVISWLKEGFTFPGRDPRATIQEQGTLQIKNLRISDTGTYTCVATSSSGETSWSAVLDVTESG | soluble |
